One block for each binder: values may come before it. Ends that are not written are not given here.
How the values were obtained:
[1] = biological target: T1, hDEP1 Peptide #2 (human, also: conjugated to BSA); test: indirect ELISA, purified soluble scFv
T1 peptide: PVLGDIEGTPGFLQVHT

[2] = biological target: T2, hDEP1 Peptide #1 (human, also: conjugated to BSA); test: indirect ELISA, purified soluble scFv
T2 peptide: AGGTPSPIPDPSV

[3] = biological target: T3, hDEP1-ECD-His (human, UniProt Q12913 621-969); test: indirect ELISA, purified soluble scFv
T3 construct: Produced in CHO cells, purified on Ni-NTA; also called recombinant protein hDEP1-ECD-His
T3 sequence: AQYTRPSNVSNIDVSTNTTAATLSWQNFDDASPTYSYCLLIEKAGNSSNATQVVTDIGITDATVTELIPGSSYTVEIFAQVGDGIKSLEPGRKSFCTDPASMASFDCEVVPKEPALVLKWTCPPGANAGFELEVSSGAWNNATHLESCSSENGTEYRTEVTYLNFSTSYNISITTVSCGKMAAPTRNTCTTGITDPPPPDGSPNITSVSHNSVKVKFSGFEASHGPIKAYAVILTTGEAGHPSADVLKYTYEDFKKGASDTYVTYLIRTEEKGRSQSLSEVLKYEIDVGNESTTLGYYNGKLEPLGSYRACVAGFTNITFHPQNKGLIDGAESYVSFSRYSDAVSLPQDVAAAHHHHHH

[4] = biological target: T4, hDEP1 Peptide #3 (human, also: conjugated to BSA); test: indirect ELISA, purified soluble scFv
T4 peptide: EVVPKEPALVLKWT

[5] = biological target: T5, murine counterpart of hDEP1-ECD-His (murine, UniProt Q64455 524-870); test: indirect ELISA, purified soluble scFv
T5 construct: also called mDEP1
T5 sequence: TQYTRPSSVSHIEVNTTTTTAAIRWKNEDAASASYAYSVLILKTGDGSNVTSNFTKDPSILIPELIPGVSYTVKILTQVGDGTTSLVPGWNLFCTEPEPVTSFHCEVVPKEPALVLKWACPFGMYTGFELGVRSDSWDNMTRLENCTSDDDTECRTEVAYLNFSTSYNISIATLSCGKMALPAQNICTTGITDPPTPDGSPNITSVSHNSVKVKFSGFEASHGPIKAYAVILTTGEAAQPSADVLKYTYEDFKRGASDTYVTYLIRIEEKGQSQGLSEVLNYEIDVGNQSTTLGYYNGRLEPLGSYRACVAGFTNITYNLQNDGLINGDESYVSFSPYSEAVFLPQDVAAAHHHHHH

[6] = biological target: T6, BSA (UniProt P02769 25-607); test: indirect ELISA, purified soluble scFv
T6 construct: Negative control antigen in the ELISAs; also called negative control (BSA only)

[7] = biological target: T7, hDEP1 Peptide #4 (human, also: conjugated to BSA); test: ELISA, soluble scFv produced in microtiter plate
T7 construct: also called hDEP1 Peptide #4/BSA
T7 peptide: ADVLKYTYEDFKKGASDT
Description: 96 isolated clones from the second, third and fourth rounds of panning were hand-picked and used to produce the respective soluble scFv in microtiter plate. Each clone was then tested in ELISA against hDEP1 Peptide #4/BSA.

[8] = biological target: T7, hDEP1 Peptide #4; test: indirect ELISA, purified soluble scFv

T6 sequence (P02769 25-607 limits assumed): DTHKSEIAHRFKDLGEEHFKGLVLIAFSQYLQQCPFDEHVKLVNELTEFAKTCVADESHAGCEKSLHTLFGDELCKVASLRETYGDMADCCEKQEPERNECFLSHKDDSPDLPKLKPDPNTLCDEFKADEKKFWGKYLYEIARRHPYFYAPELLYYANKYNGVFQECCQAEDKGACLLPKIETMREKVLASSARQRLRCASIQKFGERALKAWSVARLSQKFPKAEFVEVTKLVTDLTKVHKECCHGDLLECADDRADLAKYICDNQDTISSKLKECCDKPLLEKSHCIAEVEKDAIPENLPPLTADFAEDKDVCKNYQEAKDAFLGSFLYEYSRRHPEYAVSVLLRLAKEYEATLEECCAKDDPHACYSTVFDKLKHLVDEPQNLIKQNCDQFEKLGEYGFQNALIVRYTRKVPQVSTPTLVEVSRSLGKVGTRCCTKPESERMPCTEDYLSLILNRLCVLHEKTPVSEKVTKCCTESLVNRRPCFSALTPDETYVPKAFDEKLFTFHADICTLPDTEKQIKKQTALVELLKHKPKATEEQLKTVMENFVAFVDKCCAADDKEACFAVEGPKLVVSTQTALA

binding result [1]: no binding
binding result [2]: no binding
binding result [3]: binds
binding result [4]: no binding
binding result [5]: no binding
binding result [6]: no binding
binding result [7]: binds
B1: 5738-10-R4A-G12 (scFv, V domains shown)
VH: QVQLKESGAELAKPGSSVKISCKASGYTFTSDSISWIKQTTGQGLEYIGYIHPGSGVTNYNEKFKGKATLTVDKSSSTAFMQLSSLTPDDSAIYYCARYFDYWGQGVMVTVSS
VL: DILMTQSPSSMSVSLGDTVTITCRASQDVGIYVNWFQQKPGKSPRRMIYRATNLADGVPSRFSGSRSGSDYSLTISSLESEDVADYHCLQYDEYPPTFGGGTKLELK
notes: anti-hDEP1 scFv, rat 10 library, format VH/VL-6xHis-Flag

binding result [1]: no binding
binding result [2]: no binding
binding result [8]: no binding
binding result [4]: no binding
binding result [5]: no binding
binding result [6]: no binding
B2: 5738-13-R4A-D11 (scFv, V domains shown)
VH: QVQLKESGGGLVQPGRSLKLSCAASGFSFGDYNMAWVRQAPKKGLEWVATISYDDYRTYYRDSVKGRFTISRDDAKATLYLQMDSLRSEDTATYYCARQGGIIRGVWFPYWGQGTLVTVSS
VL: DIQMTQTPASLSASLEEIVTITCQASQDIGNWLAWYQQKPGKSPHLLIYGATTLADGVPSRFSGSRSGTQYSLKISRLQAEDIGIYYCQQASSAPWTFGGGTKLELK
notes: anti-hDEP1 scFv, rat 13 library, format VH/VL-6xHis-Flag

Reference: patent publication US20240009242A1 (STARKAGE THERAPEUTICS, published 2024)
